T1: hiR2-FL-T519A-T7 (human, UniProt Q6PJF5 1-856)
T1 sequence: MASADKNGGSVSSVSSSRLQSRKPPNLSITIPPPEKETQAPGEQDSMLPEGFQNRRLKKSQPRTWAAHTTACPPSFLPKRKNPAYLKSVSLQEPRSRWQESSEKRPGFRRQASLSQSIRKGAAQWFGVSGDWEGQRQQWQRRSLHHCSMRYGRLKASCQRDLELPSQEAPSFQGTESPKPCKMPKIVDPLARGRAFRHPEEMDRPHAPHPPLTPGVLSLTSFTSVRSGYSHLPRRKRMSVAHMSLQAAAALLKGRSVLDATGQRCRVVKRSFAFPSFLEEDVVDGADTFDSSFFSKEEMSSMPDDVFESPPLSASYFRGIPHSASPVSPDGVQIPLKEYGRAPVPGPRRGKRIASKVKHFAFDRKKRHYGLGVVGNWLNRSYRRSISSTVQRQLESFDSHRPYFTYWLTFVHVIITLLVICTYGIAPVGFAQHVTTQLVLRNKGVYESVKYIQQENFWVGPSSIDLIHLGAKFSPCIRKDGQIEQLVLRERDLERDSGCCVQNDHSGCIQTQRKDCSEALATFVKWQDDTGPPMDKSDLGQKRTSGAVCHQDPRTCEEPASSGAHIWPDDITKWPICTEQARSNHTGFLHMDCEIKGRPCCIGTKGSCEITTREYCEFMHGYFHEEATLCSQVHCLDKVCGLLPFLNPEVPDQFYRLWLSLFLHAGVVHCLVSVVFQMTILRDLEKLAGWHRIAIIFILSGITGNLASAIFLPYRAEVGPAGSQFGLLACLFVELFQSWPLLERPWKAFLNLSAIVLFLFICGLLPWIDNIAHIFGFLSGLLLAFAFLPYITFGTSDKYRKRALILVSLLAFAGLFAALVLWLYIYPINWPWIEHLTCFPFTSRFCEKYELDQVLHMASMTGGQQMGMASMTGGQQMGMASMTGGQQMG

T2: hiR2-FL-L589A-T7 (human, UniProt Q6PJF5 1-856)
T2 sequence: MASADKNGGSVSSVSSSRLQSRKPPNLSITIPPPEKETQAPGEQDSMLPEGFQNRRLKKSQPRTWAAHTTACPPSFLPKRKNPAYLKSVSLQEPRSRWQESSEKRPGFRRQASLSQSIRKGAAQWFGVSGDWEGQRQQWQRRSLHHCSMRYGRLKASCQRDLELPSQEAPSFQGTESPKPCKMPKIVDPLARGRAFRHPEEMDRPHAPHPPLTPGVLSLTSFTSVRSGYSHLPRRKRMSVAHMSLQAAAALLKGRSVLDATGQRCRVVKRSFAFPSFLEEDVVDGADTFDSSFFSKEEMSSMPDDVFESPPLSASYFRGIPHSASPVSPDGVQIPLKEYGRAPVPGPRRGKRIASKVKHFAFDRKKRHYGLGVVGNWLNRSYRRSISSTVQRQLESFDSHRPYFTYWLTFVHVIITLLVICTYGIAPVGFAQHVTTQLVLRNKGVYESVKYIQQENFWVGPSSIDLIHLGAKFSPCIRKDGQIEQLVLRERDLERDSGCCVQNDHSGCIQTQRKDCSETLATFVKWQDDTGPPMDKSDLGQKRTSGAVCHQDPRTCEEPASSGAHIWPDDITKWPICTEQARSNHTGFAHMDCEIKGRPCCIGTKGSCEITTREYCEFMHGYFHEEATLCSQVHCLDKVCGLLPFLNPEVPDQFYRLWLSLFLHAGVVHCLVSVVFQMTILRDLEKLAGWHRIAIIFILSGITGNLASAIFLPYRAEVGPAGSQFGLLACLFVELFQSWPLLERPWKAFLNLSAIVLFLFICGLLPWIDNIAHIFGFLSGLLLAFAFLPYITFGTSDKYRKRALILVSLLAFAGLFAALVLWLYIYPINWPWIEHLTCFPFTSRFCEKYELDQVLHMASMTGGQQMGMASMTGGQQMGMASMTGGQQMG

B1: antibody 48 (antibody, V domains shown)
VH: QVQLQQSGTELVRPGTSVKVSCKASGYAFTNYLIEWVKQRPGQGLEWIGVINPGSGFTKYNEKFKGKATLTADKSSSTVYMHLSSLTSEDSAVYFCARGLYRAMDYWGQGTSVTVSS
VL: DIQMTQSPASQSASLGESVTITCLASQTIATWLAWYQQKPGKSPQLLIYGATTLADGVPSRFSGGGSGTKFSFKISSLQAEDFVSYYCQQLYSTPYTFGGGTKLEIK
notes: mouse IgG, kappa light chain; also called clone #48; purified antibody 48
B2: antibody 50 (antibody, V domains shown)
VH: QVQLQQSGAELVRPGASVKVSCKASGYAFSNYLIEWVKQRPGQGLEWIGVINPGSGFTKYNEKFKGKATLTADKSSSTAYMQLSSLTSEDSAVYFCARGLYRAMDYWGQGTSVTVSS
VL: DIQMTQSPASQSASLGESVTITCLASQTIGTWLAWYQQKPGKSPQLLIYAAASLADGVPSRFSGGGSGTKFSFKISSLQAEDFVNYYCQQIYSTPYTFGGGTKLEIK
notes: mouse IgG, kappa light chain; also called clone #50; purified antibody 50

Experiments:
hiR2-FL-T519A-T7 = biological target: T1, hiR2-FL-T519A-T7; assay: FACS on MEF-DKO cells expressing the variant, 3 µg/ml antibody
Outline: (§1)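 Cells were stained with purified antibody at 3 μg/ml in FACS buffer for 1 hour on ice, with buffer-only controls. Bound antibody was detected with PE-conjugated goat anti-mouse IgG F(ab′)2 at 1:100, 1 hour on ice in the dark, followed by flow cytometry.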

hiR2-FL-L589A-T7 = biological target: T2, hiR2-FL-L589A-T7; assay: as above
Outline: as §1

Binder	loss of binding vs wild type (hiR2-FL-T519A-T7) [%]	loss of binding vs wild type (hiR2-FL-L589A-T7) [%]
B1	≥ 60	≥ 60
B2	≥ 60	≥ 60
